Source: patent CN113683688A

Biological target: HIV-1 P24重组蛋白 (原核细胞大肠杆菌表达的HIV-1 P24全长蛋白) (HIV-1) (UniProt P04591)
Assay: indirect ELISA, serial two-fold dilution of the antibody

B1: 抗HIV-1 P24兔单克隆抗体OTIR5D12 (antibody, V domains shown)
VH: QSLEESGGRLVTPGTPLTLTCTASGFSLNSYYMTWVRQAPGKGLEWIGILDTSGSTDYASWAKGRFTISKTSTTVDLKVTSPTAADTATYFCARGAYYSAYGDAWGQGTLVTVSS
VL: AQVLTQTPSPVSAVLGGTVTINCQSSQSVYNSNWLSWFQQKPGQPPKLLIYKASNLASGVPSRFKGSGSGTQFTLTISSVQCDDAATYYCQGGYNNGDGFGGGTEVVVK
- 效价 (antibody titer): 6.6e+06
